The record followed here is IntAct's records for PubMed 25416956.

B1: Serotonin N-acetyltransferase (Homo sapiens), Q16613 (parent)
chain: MSTQSTHPLKPEAPRLPPGIPESPSCQRRHTLPASEFRCLTPEDAVSAFEIEREAFISVLGVCPLYLDEIRHFLTLCPELSLGWFEEGCLVAFIIGSLWDKERLMQESLTLHRSGGHIAHLHVLAVHRAFRQQGRGPILLWRYLHHLGSQPAVRRAALMCEDALVPFYERFSFHAVGPCAITVGSLTFMELHCSLRGHPFLRRNSGC
B2: Keratin, type II cytoskeletal 2 epidermal (Homo sapiens), P35908 (parent)
chain: MSCQISCKSRGRGGGGGGFRGFSSGSAVVSGGSRRSTSSFSCLSRHGGGGGGFGGGGFGSRSLVGLGGTKSISISVAGGGGGFGAAGGFGGRGGGFGGGSSFGGGSGFSGGGFGGGGFGGGRFGGFGGPGGVGGLGGPGGFGPGGYPGGIHEVSVNQSLLQPLNVKVDPEIQNVKAQEREQIKTLNNKFASFIDKVRFLEQQNQVLQTKWELLQQMNVGTRPINLEPIFQGYIDSLKRYLDGLTAERTSQNSELNNMQDLVEDYKKKYEDEINKRTAAENDFVTLKKDVDNAYMIKVELQSKVDLLNQEIEFLKVLYDAEISQIHQSVTDTNVILSMDNSRNLDLDSIIAEVKAQYEEIAQRSKEEAEALYHSKYEELQVTVGRHGDSLKEIKIEISELNRVIQRLQGEIAHVKKQCKNVQDAIADAEQRGEHALKDARNKLNDLEEALQQAKEDLARLLRDYQELMNVKLALDVEIATYRKLLEGEECRMSGDLSSNVTVSVTSSTISSNVASKAAFGGSGGRGSSSGGGYSSGSSSYGSGGRQSGSRGGSGGGGSISGGGYGSGGGSGGRYGSGGGSKGGSISGGGYGSGGGKHSSGGGSRGGSSSGGGYGSGGGGSSSVKGSSGEAFGSSVTFSFR
B3: DNA ligase 4 (Homo sapiens), P49917 (parent)
chain: MAASQTSQTVASHVPFADLCSTLERIQKSKGRAEKIRHFREFLDSWRKFHDALHKNHKDVTDSFYPAMRLILPQLERERMAYGIKETMLAKLYIELLNLPRDGKDALKLLNYRTPTGTHGDAGDFAMIAYFVLKPRCLQKGSLTIQQVNDLLDSIASNNSAKRKDLIKKSLLQLITQSSALEQKWLIRMIIKDLKLGVSQQTIFSVFHNDAAELHNVTTDLEKVCRQLHDPSVGLSDISITLFSAFKPMLAAIADIEHIEKDMKHQSFYIETKLDGERMQMHKDGDVYKYFSRNGYNYTDQFGASPTEGSLTPFIHNAFKADIQICILDGEMMAYNPNTQTFMQKGTKFDIKRMVEDSDLQTCYCVFDVLMVNNKKLGHETLRKRYEILSSIFTPIPGRIEIVQKTQAHTKNEVIDALNEAIDKREEGIMVKQPLSIYKPDKRGEGWLKIKPEYVSGLMDELDILIVGGYWGKGSRGGMMSHFLCAVAEKPPPGEKPSVFHTLSRVGSGCTMKELYDLGLKLAKYWKPFHRKAPPSSILCGTEKPEVYIEPCNSVIVQIKAAEIVPSDMYKTGCTLRFPRIEKIRDDKEWHECMTLDDLEQLRGKASGKLASKHLYIGGDDEPQEKKRKAAPKMKKVIGIIEHLKAPNLTNVNKISNIFEDVEFCVMSGTDSQPKPDLENRIAEFGGYIVQNPGPDTYCVIAGSENIRVKNIILSNKHDVVKPAWLLECFKTKSFVPWQPRFMIHMCPSTKEHFAREYDCYGDSYFIDTDLNQLKEVFSGIKNSNEQTPEEMASLIADLEYRYSWDCSPLSMFRRHTVYLDSYAVINDLSTKNEGTRLAIKALELRFHGAKVVSCLAEGVSHVIIGEDHSRVADFKAFRRTFKRKFKILKESWVTDSIDKCELQEENQYLI
B4: Keratin, type II cytoskeletal 2 epidermal (Homo sapiens), P35908 (parent)
chain: B2 chain
partner: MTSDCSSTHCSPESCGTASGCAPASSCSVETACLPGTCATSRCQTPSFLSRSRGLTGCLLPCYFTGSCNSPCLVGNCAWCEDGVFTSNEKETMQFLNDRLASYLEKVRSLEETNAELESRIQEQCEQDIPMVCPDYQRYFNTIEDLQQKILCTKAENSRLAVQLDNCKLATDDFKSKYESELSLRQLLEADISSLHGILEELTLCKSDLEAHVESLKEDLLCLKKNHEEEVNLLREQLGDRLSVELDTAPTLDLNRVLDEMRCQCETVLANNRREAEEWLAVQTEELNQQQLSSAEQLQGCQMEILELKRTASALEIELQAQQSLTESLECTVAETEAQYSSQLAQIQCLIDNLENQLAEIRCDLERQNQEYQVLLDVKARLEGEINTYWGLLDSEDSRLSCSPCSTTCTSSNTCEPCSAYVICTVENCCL
B5: Keratin, type II cytoskeletal 6A (Homo sapiens), P02538 (parent)
chain: MASTSTTIRSHSSSRRGFSANSARLPGVSRSGFSSVSVSRSRGSGGLGGACGGAGFGSRSLYGLGGSKRISIGGGSCAISGGYGSRAGGSYGFGGAGSGFGFGGGAGIGFGLGGGAGLAGGFGGPGFPVCPPGGIQEVTVNQSLLTPLNLQIDPTIQRVRAEEREQIKTLNNKFASFIDKVRFLEQQNKVLETKWTLLQEQGTKTVRQNLEPLFEQYINNLRRQLDSIVGERGRLDSELRGMQDLVEDFKNKYEDEINKRTAAENEFVTLKKDVDAAYMNKVELQAKADTLTDEINFLRALYDAELSQMQTHISDTSVVLSMDNNRNLDLDSIIAEVKAQYEEIAQRSRAEAESWYQTKYEELQVTAGRHGDDLRNTKQEIAEINRMIQRLRSEIDHVKKQCANLQAAIADAEQRGEMALKDAKNKLEGLEDALQKAKQDLARLLKEYQELMNVKLALDVEIATYRKLLEGEECRLNGEGVGQVNISVVQSTVSSGYGGASGVGSGLGLGGGSSYSYGSGLGVGGGFSSSSGRAIGGGLSSVGGGSSTIKYTTTSSSSRKSYKH
partner: B4 partner

The variants in one assay derive from B1. The settings on record: with bhe40_human BHLHE40, O14503.
Sequence of bhe40_human BHLHE40, O14503 (O14503 whole entry): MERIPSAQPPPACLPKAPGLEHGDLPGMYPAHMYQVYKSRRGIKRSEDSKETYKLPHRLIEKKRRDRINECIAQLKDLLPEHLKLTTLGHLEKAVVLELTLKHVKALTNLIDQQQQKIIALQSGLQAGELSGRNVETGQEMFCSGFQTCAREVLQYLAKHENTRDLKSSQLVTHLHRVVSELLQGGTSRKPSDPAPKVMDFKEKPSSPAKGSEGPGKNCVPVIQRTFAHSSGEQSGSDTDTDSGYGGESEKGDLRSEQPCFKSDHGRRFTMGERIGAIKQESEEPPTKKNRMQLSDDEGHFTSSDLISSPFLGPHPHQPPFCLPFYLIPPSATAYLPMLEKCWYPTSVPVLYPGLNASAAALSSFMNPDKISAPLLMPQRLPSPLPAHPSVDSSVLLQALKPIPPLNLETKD
Consider A129T, for which the “effect of a mutation on the interaction” value was “disrupting interaction”.

In a further assay the parent is B2. The settings on record: with KRT19, P08727.
Sequence of KRT19, P08727 (P08727 whole entry): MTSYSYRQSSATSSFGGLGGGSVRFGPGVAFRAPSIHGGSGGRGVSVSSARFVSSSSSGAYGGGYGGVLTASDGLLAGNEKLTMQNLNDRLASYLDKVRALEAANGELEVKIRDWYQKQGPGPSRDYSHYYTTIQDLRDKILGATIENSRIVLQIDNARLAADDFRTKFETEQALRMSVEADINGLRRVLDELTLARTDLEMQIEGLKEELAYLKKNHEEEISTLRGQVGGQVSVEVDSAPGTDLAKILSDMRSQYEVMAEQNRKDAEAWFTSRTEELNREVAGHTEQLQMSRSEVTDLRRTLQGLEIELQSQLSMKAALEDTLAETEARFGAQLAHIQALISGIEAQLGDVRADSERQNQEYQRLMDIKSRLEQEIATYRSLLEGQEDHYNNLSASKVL
For the variant I477N, the “effect of a mutation on the interaction” value is “disrupting interaction”.

In the next assay the parent is B3. The settings on record: with xrcc4_human XRCC4, Q13426.
Sequence of xrcc4_human XRCC4, Q13426 (Q13426 whole entry): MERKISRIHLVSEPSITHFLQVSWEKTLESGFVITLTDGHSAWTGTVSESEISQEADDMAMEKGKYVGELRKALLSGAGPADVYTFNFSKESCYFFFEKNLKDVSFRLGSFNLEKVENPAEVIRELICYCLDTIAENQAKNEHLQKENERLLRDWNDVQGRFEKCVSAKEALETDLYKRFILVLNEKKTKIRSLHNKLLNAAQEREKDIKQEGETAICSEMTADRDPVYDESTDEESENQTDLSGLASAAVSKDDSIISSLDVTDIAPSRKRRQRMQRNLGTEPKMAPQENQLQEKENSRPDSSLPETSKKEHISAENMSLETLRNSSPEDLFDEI
Take A3V: the “effect of a mutation on the interaction” value is “disrupting interaction”.

In another assay the parent is B4. The conditions noted are these: with KRT40, Q6A162.
As for I477N, the “effect of a mutation on the interaction” value was “disrupting interaction”.

The variants in the next assay derive from B4. The conditions noted are these: with KRT40, Q6A162. The source holds these as a separate data set.
As to L484P, the “effect of a mutation on the interaction” value is given as “disrupting interaction”.

Another assay covers variants of B5. The conditions noted are these: with KRT40, Q6A162.
For MASTSTTIRSHSSSRRGFSANSARLPGVSRSGFSSVSVSRSRGSGGLGGACGGAGFGSRSLYGLGGSKRISIGGGSCAISGGYGSRAGGSYGFGGAGSGFGFGGGAGIGFGLGGGAGLAGGFGGPGFPVCPPGGIQEVTVNQSLLTPLNLQIDPTIQRVRAEEREQIKTLNNKFASFIDKVRFLEQQNKVLETKWTLLQEQGTKTVRQNLEPLFEQYINNLRRQLDSIVGERGRLDSELRGMQDLVEDFKNKYEDEINKRTAAENEFVTLKKDVDAAYMNKVELQAKADTLTDEINFLRALYDAELSQMQTHISDTSVVLSMDNNRNLDLDSIIAEVKAQYEEIAQRSRAEAESWYQTKYEELQVTAGRHGDDLRNTKQEIAEINRMIQRLRSEIDHVKKQCANLQAAIADAEQRGEMALKDAKNKLEGLEDALQKAKQDLARLLKEYQELMNVKLALDVEIPTYRKLLEGEECRLNGEGVGQVNISVVQSTVSSGYGGASGVGSGLGLGGGSSYSYGSGLGVGGGFSSSSGRAIGGGLSSVGGGSSTIKYTTTSSSSRKSYKH [A463P], the “effect of a mutation on the interaction” value is reported as “disrupting interaction”.
